The supplement of paper PMC9112550, “Optimization of the antimicrobial peptide Bac7 by deep mutational scanning” (BMC Biology, 2022)

Tested on: Escherichia coli TOP10
Assay: shrunken log2 fold change of peptide-encoding DNA abundance (4.5 h post-induction vs induction); higher = less antimicrobial activity (less host growth inhibition)
Conditions: time post-induction: 4.5 h; library: site-saturation at positions 5, 18, 19, 20
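Further: peptides expressed intracellularly from a pBAD plasmid library in pooled LB shake-flask culture, induced with 0.3% L-arabinose, DNA abundance read by NGS, three biological replicates, DESeq2 with apeglm shrinkage.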

Sequence | shrunken log2 fold change
RRIRARPPRLPRPRPRPTHPPRP | 0.586
RRIRRRPPRLPRPRPRPILAPRP | 1.17
RRIRGRPPRLPRPRPRPLVLPRP | 0.401
RRIRVRPPRLPRPRPRPHQGPRP | 0.105
RRIRRRPPRLPRPRPRPDLEPRP | 0.0267
RRIRGRPPRLPRPRPRPYQGPRP | 0.0167
RRIRCRPPRLPRPRPRPERLPRP | 0.0345
RRIRSRPPRLPRPRPRPDMFPRP | -0.212
RRIRIRPPRLPRPRPRPVYEPRP | -0.12
RRIRYRPPRLPRPRPRPDYEPRP | -0.105
RRIRVRPPRLPRPRPRPDITPRP | -0.305
RRIRKRPPRLPRPRPRPAYYPRP | -0.0726
RRIRKRPPRLPRPRPRPMRDPRP | 0.0228
RRIRNRPPRLPRPRPRPWSKPRP | -0.167
RRIRARPPRLPRPRPRPIFQPRP | 0.116
RRIRERPPRLPRPRPRPNVAPRP | -0.186
RRIRYRPPRLPRPRPRPGHPPRP | -0.0687
RRIRCRPPRLPRPRPRPLLHPRP | -0.319
RRIRERPPRLPRPRPRPCATPRP | 0.0398
RRIRHRPPRLPRPRPRPRVDPRP | 0.0681
RRIRGRPPRLPRPRPRPPEMPRP | 1.62
RRIRRRPPRLPRPRPRPNCCPRP | 0.0381
RRIRYRPPRLPRPRPRPVGAPRP | 0.252
RRIRWRPPRLPRPRPRPSDCPRP | -0.183
RRIRNRPPRLPRPRPRPELNPRP | -0.0809

Sequence | shrunken log2 fold change
RRIRHRPPRLPRPRPRPMDAPRP | 0.00875
RRIRIRPPRLPRPRPRPRSKPRP | -0.251
RRIRFRPPRLPRPRPRPVRAPRP | 0.495
RRIRPRPPRLPRPRPRPSNKPRP | -0.56
RRIRCRPPRLPRPRPRPEMSPRP | -0.129
RRIRTRPPRLPRPRPRPWRYPRP | 0.108
RRIRDRPPRLPRPRPRPASSPRP | 0.0229
RRIRWRPPRLPRPRPRPKQIPRP | 0.143
RRIRRRPPRLPRPRPRPPRVPRP | 1.18
RRIRVRPPRLPRPRPRPHVLPRP | -0.067
RRIRERPPRLPRPRPRPEFYPRP | -0.377
RRIRYRPPRLPRPRPRPHATPRP | -0.191
RRIRIRPPRLPRPRPRPDAKPRP | 0.0898
RRIRDRPPRLPRPRPRPDHHPRP | -0.616
RRIRDRPPRLPRPRPRPHRIPRP | -0.00804
RRIRTRPPRLPRPRPRPDDRPRP | 0.0143
RRIRVRPPRLPRPRPRPPKTPRP | 0.152
RRIRMRPPRLPRPRPRPCLDPRP | -0.273
RRIRKRPPRLPRPRPRPHHHPRP | -0.208
RRIRQRPPRLPRPRPRPHFIPRP | -0.328
RRIRLRPPRLPRPRPRPTSMPRP | -0.154
RRIRSRPPRLPRPRPRPDQNPRP | -0.182
RRIRTRPPRLPRPRPRPTWLPRP | 0.511
RRIRHRPPRLPRPRPRPHFNPRP | -0.42
RRIRHRPPRLPRPRPRPDTQPRP | 0.047

Sequence | shrunken log2 fold change
RRIRHRPPRLPRPRPRPLGYPRP | -0.0228
RRIRFRPPRLPRPRPRPRRQPRP | 0.108
RRIRPRPPRLPRPRPRPMFTPRP | -0.178
RRIRLRPPRLPRPRPRPWSMPRP | 0.202
RRIRTRPPRLPRPRPRPHKLPRP | -0.236
RRIRQRPPRLPRPRPRPENAPRP | 0.242
RRIRGRPPRLPRPRPRPGQAPRP | 0.353
RRIRVRPPRLPRPRPRPWIEPRP | -0.104
RRIRHRPPRLPRPRPRPNSHPRP | -1.09
RRIRRRPPRLPRPRPRPAMVPRP | 0.00501
RRIRARPPRLPRPRPRPQNHPRP | -0.446
RRIRERPPRLPRPRPRPMDYPRP | -0.214
RRIRWRPPRLPRPRPRPKHNPRP | -0.152
RRIRDRPPRLPRPRPRPQLMPRP | 0.419
RRIRDRPPRLPRPRPRPAGDPRP | 0.523
RRIRDRPPRLPRPRPRPGESPRP | -0.00997
RRIRKRPPRLPRPRPRPFMNPRP | -0.0366
RRIRFRPPRLPRPRPRPPFFPRP | 0.243
RRIRYRPPRLPRPRPRPERCPRP | -0.12
RRIRYRPPRLPRPRPRPLPCPRP | -0.413
RRIRWRPPRLPRPRPRPRHKPRP | -0.0379
RRIRQRPPRLPRPRPRPCQSPRP | -0.0019
RRIRNRPPRLPRPRPRPNITPRP | -0.693
RRIRMRPPRLPRPRPRPPKWPRP | 0.315
RRIRCRPPRLPRPRPRPRGHPRP | 0.071

Sequence | shrunken log2 fold change
RRIRERPPRLPRPRPRPEDIPRP | -0.00136
RRIRHRPPRLPRPRPRPQFDPRP | 0.0132
RRIRHRPPRLPRPRPRPYRSPRP | 0.0215
RRIRNRPPRLPRPRPRPNGHPRP | -0.41
RRIRSRPPRLPRPRPRPDAFPRP | 0.387
RRIRDRPPRLPRPRPRPGVVPRP | 0.708
RRIRDRPPRLPRPRPRPGPIPRP | -0.0864
RRIRIRPPRLPRPRPRPGQAPRP | -0.0154
RRIRERPPRLPRPRPRPFMNPRP | -0.00101
RRIRQRPPRLPRPRPRPELDPRP | 0.0346
RRIRCRPPRLPRPRPRPMYQPRP | -0.265
RRIRWRPPRLPRPRPRPFSGPRP | 0.0272
RRIRMRPPRLPRPRPRPQGYPRP | 0.0234
RRIRYRPPRLPRPRPRPTLVPRP | -0.0641
RRIRNRPPRLPRPRPRPCQDPRP | -0.0893
RRIRVRPPRLPRPRPRPRWLPRP | 0.211
RRIRRRPPRLPRPRPRPPYSPRP | 0.122
RRIRKRPPRLPRPRPRPMYPPRP | 0.00349
RRIRKRPPRLPRPRPRPEVPPRP | 0.539
RRIRDRPPRLPRPRPRPLILPRP | -0.096
RRIRDRPPRLPRPRPRPRINPRP | 0.0252
RRIRRRPPRLPRPRPRPVNFPRP | -0.0106
RRIRERPPRLPRPRPRPPFDPRP | -0.0468
RRIRDRPPRLPRPRPRPGIKPRP | -0.165
RRIRSRPPRLPRPRPRPNYHPRP | -0.742

Sequence | shrunken log2 fold change
RRIRGRPPRLPRPRPRPMIAPRP | 0.915
RRIRQRPPRLPRPRPRPYYTPRP | -0.363
RRIRERPPRLPRPRPRPKFGPRP | 0.37
RRIRFRPPRLPRPRPRPEVGPRP | 0.296
RRIRQRPPRLPRPRPRPDFRPRP | 0.0259
RRIRVRPPRLPRPRPRPNNTPRP | -0.418
RRIRFRPPRLPRPRPRPTGSPRP | -0.103
RRIRLRPPRLPRPRPRPWQSPRP | 0.0341
RRIRDRPPRLPRPRPRPFMWPRP | -0.102
RRIRCRPPRLPRPRPRPATQPRP | 0.262
RRIRDRPPRLPRPRPRPIASPRP | 0.194
RRIRCRPPRLPRPRPRPQVWPRP | -0.0474
RRIRCRPPRLPRPRPRPEVTPRP | -0.0149
RRIRKRPPRLPRPRPRPKNEPRP | 0.345
RRIRERPPRLPRPRPRPKHIPRP | -0.766
RRIRNRPPRLPRPRPRPMLWPRP | 0.0244
RRIRHRPPRLPRPRPRPSSDPRP | -0.529
RRIRERPPRLPRPRPRPLCGPRP | -0.2
RRIRDRPPRLPRPRPRPEMWPRP | 2.04
RRIRGRPPRLPRPRPRPSEFPRP | 0.122
RRIRVRPPRLPRPRPRPMFWPRP | 0.285
RRIRFRPPRLPRPRPRPIAEPRP | 0.2
RRIRARPPRLPRPRPRPFFLPRP | -0.0057
RRIRNRPPRLPRPRPRPLWQPRP | -0.303
RRIRTRPPRLPRPRPRPHSSPRP | -0.119

Sequence | shrunken log2 fold change
RRIRIRPPRLPRPRPRPHCTPRP | -0.0502
RRIRERPPRLPRPRPRPYAEPRP | -0.447
RRIRGRPPRLPRPRPRPSVVPRP | 0.658
RRIRERPPRLPRPRPRPKHYPRP | -0.373
RRIRYRPPRLPRPRPRPPGDPRP | 0.152
RRIRFRPPRLPRPRPRPQSGPRP | -0.036
RRIRCRPPRLPRPRPRPIANPRP | 0.0422
RRIRDRPPRLPRPRPRPYDHPRP | -0.361
RRIRNRPPRLPRPRPRPCHSPRP | -0.539
RRIRIRPPRLPRPRPRPEVEPRP | -0.0136
RRIRCRPPRLPRPRPRPMWQPRP | 0.183
RRIRCRPPRLPRPRPRPDMGPRP | -0.406
RRIRSRPPRLPRPRPRPLPYPRP | -0.25
RRIRYRPPRLPRPRPRPNDIPRP | -0.299
RRIRQRPPRLPRPRPRPWSPPRP | -0.106
RRIRWRPPRLPRPRPRPYMCPRP | 0.00232
RRIRTRPPRLPRPRPRPCCKPRP | -0.279
RRIRNRPPRLPRPRPRPGHSPRP | -0.152
RRIRTRPPRLPRPRPRPFCPPRP | -0.279
RRIRWRPPRLPRPRPRPADAPRP | 0.739
RRIRQRPPRLPRPRPRPVVQPRP | -0.0933
RRIRNRPPRLPRPRPRPRREPRP | 0.38
RRIRKRPPRLPRPRPRPLKPPRP | 0.238
RRIRYRPPRLPRPRPRPSGYPRP | -0.714
RRIRDRPPRLPRPRPRPHNCPRP | 0.0686
